In paper PMC10624894 (Nature Communications, 2023):

target: EA1ΔD6 (Bacillus anthracis (strain 7702), UniProt P94217, biotin (EZ-Link NHS-PEG4-Biotin) in the BLI experiment only); experiment: BLI; […] (3 µg/ml) […]; room temperature; […]; conditions: both partners purified

Row | Binder | Kd [nM]
1 | Nb^633 (VHH, also called nanobody 633; source: E. coli WK6, periplasmic expression, purified (SEC as the final step)) VHH: QVQLVESGGGLVQAGASLRLSCAASGRTFSSYAMGWFRQAPGKEREFVAAISPLGQTTYYTDSVKGRFTISRDNAKNTLYLQMNSLKPEDTAVYYCAQGSLSEVRLGKSTYWGQGTQVTVSS | 13
2 | Nb^643 (VHH, also called nanobody 643; source: E. coli WK6, periplasmic expression, purified (SEC as the final step)) VHH: QVQLVESGGGLVQPGGSLRLSCAASGIAFSRNAVGWYRQAPGKQRELVARSNTVGATNYADSVKGRFTISRDNDKSTVYLQMNSLKPEDTAVYYCNIYLYGDRTGSTLNSWGQGTQVTVSS | 1.9
3 | Nb^632 (VHH, also called nanobody 632; source: E. coli WK6, periplasmic expression, purified (SEC as the final step)) VHH: QVQLVESGGGLVQAGGSLRLSCVASGGTFSNYGMGWFRQAPGKEREFVAAVRWSGDSTYYSDSVKGRFTISRDNAKNTVYLQMNGLKPEDTAVYYCARRLNWRFISNWDKESEYAYWGQGTQVTVSS | 2.2
